Legend:
[1] = system: tipA promoter DNA (ptipA); test: Fluorescence polarization assay, tipA promoter DNA binding; parameters: species or system Streptomyces lividans; details: FPA, apo; for Kd: read-out: Kd, affinity with the tipA promoter DNA (ptipA)
Procedure: (§1) Fluorescence polarization assays (FPAs) were performed to test the structure-based hypothesis that α6–α7 plays a key role in communication between the ligand-binding and DNA-binding regions. […] Parallel experiments were also performed for Mta and SkgA proteins, and consistent results were obtained.
(§2) FPAs were performed in buffer consisting of 20 mM Tris-HCl, pH 7.5, 200 mM NaCl and 5% (v/v) glycerol at 298 K using a SpectraMax M5 microplate reader system (Molecular Devices, San Jose, CA, USA). The wavelengths of fluorescence excitation and emission were 486 and 525 nm, respectively. 26-bp dsDNA from the −10 and −35 regions of the tipA, mta, and skgA promoters with the sequences […], […], and […] were synthesized with a 5′-carboxyfluorescein label for the respective assays with TipAL, Mta, and SkgA proteins. For assays with thiostrepton supplementation, proteins were incubated with thiostrepton (Sigma) at a 1:1 ratio for 15 min prior to mixing with DNA in wells. Each well of a 384-well plate contained 10 nM of a fluorescently labeled DNA probe and different amounts of proteins with a final volume of 80 μl. DNA-free controls were included, and three replicates were performed for each reaction for each assay. The fluorescence polarization ΔP (in mP units) was calculated and fitted according to a one-site specific binding model using GraphPad Prism7 (GraphPad Software) with the function ΔP = ΔPmax[protein]/(Kd + [protein]).

mta promoter DNA = test: Fluorescence polarization assay, mta promoter DNA binding; parameters: species or system Bacillus subtilis; details: apo, FPA; for Kd: 10 nM 5'-carboxyfluorescein-labeled 26-bp dsDNA, 20 mM Tris-HCl pH 7.5, 200 mM NaCl, 5% glycerol, 298 K, ex 486/em 525 nm, one-site binding fit, three replicates, n.b. = printed in picture, not defined, read-out: Kd, affinity with mta promoter DNA
Procedure: as §1, §2

[2] = no antibiotic, 10 nM 5'-carboxyfluorescein-labeled 26-bp dsDNA, 20 mM Tris-HCl pH 7.5, 200 mM NaCl, 5% glycerol, 298 K, ex 486/em 525 nm, one-site binding fit, three replicates, n.b. = printed in picture, not defined

| Molecule | Kd (mta promoter DNA) | Kd [1, 2] | also measured |
| --- | --- | --- | --- |
| TipALCC (protein, disulfide bonds between the introduced cysteines of two protomers (nonreduced sample); left off: His6, end not stated, state not stated) MSYSVGQVAGFAGVCVRTLHHYDDIGLLVPSERSHAGHRRYSDADLDRLQQILFYRELGFPLDEVAALLDDPAADPRAHLRRQHELLSARIGKLQKMAAAVEQAMEARSMGINLTPEEKFEVFGDFDPDQYEECVRERWGNTDAYRQSKEKTASYTKEDWQRIQDEADELTRRFVALMDAGEPADSEGAMDAAEDHRQGIARNHYDCGYEMHTCLGEMYVSDERFTRNIDAAKPGLAAYMRDAILANAVRHTP |  |  | ptipA DNA-binding ability ([1]; double-cysteine mutant): complete loss of DNA-binding ability; Kd, affinity with the tipA promoter DNA (ptipA) [1, 2]: n.b. |
| Mta: B. subtilis multidrug transporter activation protein, TipA-class (protein, left off: His6, end not stated, state not stated) MKYQVKQVAEISGVSIRTLHHYDNIELLNPSALTDAGYRLYSDADLERLQQILFFKEIGFRLDEIKEMLDHPNFDRKAALQSQKEILMKKKQRMDEMIQTIDRTLLSVDGGETMNKRDLFAGLSMKDIEEHQQTYADEVRKLYGKEIAEETEKRTSAYSADDWRTIMAEFDSIYRRIAARMKHGPDDAEIQAAVGAFRDHICQYHYDCTLDIFRGLGEVYITDERFTDSINQYGEGLAAFLREAIIIYCDHQENPRP | 496 ± 70.3 nM |  |  |
| MtaH7: truncated protein containing the α6–α7 region, Mta residues 1–144 (protein, UniProt P71039 1-144, looked up, fragment) MKYQVKQVAEISGVSIRTLHHYDNIELLNPSALTDAGYRLYSDADLERLQQILFFKEIGFRLDEIKEMLDHPNFDRKAALQSQKEILMKKKQRMDEMIQTIDRTLLSVDGGETMNKRDLFAGLSMKDIEEHQQTYADEVRKLYG | 467 ± 67.4 nM |  | lower DNA-binding affinity than N-terminal truncation (mta promoter DNA; MtaH7 vs MtaN, range printed jointly for the three H7 truncations): 4–7 fold |
| TipAL: full-length S. lividans TipA transcriptional regulatory protein (protein, left off: His6, end not stated, state not stated, full-length S. lividans TipA transcriptional regulatory protein) MSYSVGQVAGFAGVTVRTLHHYDDIGLLVPSERSHAGHRRYSDADLDRLQQILFYRELGFPLDEVAALLDDPAADPRAHLRRQHELLSARIGKLQKMAAAVEQAMEARSMGINLTPEEKFEVFGDFDPDQYEEEVRERWGNTDAYRQSKEKTASYTKEDWQRIQDEADELTRRFVALMDAGEPADSEGAMDAAEDHRQGIARNHYDCGYEMHTCLGEMYVSDERFTRNIDAAKPGLAAYMRDAILANAVRHTP |  | 380 ± 56 nM |  |
| TipAH7: truncated protein consisting of TipAN and the α6–α7 region, TipAL residues 1–140 (protein, left off: His6, end not stated, state not stated) MSYSVGQVAGFAGVTVRTLHHYDDIGLLVPSERSHAGHRRYSDADLDRLQQILFYRELGFPLDEVAALLDDPAADPRAHLRRQHELLSARIGKLQKMAAAVEQAMEARSMGINLTPEEKFEVFGDFDPDQYEEEVRERWG |  | 318 ± 58.5 nM | lower DNA-binding affinity than N-terminal truncation ([1]; TipAH7 vs TipAN, range printed jointly for the three H7 truncations): 4–7 fold |

From publication PMC7762955, “Antibiotic binding releases autoinhibition of the TipA multidrug-resistance transcriptional regulator” (The Journal of Biological Chemistry, 2020)
